The target in this test is insulin receptor, endogenous in 3T3-L1 preadipocytes (UniProt P15208). Put plainly: cell-based or functional assay.
Chain of UniProt P15208 (P15208 28-1372 limits assumed): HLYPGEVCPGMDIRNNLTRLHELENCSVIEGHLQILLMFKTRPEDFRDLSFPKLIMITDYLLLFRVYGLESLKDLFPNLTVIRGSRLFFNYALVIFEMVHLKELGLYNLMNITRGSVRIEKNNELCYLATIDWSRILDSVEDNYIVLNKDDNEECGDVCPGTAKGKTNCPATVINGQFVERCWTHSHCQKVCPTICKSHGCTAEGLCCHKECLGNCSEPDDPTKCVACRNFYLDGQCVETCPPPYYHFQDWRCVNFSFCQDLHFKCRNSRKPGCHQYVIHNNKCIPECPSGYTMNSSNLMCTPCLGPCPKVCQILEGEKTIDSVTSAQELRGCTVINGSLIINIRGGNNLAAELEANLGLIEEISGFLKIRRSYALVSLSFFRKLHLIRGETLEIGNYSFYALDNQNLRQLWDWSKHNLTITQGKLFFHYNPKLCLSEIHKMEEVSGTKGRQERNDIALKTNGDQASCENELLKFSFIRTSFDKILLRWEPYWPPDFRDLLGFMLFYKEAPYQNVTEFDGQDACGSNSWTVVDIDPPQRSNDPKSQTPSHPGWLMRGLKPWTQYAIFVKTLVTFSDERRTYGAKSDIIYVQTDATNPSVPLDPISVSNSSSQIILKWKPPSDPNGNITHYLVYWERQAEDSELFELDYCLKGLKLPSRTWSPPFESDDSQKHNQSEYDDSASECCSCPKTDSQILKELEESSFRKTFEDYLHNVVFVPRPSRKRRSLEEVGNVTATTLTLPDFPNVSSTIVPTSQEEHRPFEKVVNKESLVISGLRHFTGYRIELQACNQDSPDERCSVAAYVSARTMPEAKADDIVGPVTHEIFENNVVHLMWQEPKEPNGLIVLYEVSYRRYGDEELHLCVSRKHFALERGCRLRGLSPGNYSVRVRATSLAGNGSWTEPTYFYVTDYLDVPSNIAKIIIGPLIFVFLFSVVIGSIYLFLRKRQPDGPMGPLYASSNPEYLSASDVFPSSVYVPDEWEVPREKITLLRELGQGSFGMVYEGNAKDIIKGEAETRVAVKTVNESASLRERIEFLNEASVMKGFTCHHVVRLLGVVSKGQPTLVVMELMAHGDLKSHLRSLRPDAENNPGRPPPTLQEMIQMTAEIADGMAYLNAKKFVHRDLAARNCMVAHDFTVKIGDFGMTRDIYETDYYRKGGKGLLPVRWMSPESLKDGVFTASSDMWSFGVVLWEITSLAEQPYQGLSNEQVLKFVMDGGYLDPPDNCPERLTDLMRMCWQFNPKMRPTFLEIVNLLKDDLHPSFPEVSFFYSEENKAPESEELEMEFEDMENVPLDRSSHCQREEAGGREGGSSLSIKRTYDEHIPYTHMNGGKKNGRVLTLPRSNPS

For the substance “native Gpc4 with HA-tag inserted after the signal peptide, stably overexpressed in 3T3-L1 cells (from UniProt P51655 19-529)”, the insulin-stimulated Akt-Ser473 peak phosphorylation, enhancement by overexpression was 140% and the insulin-stimulated ERK peak phosphorylation, enhancement by overexpression was found to be 100%.
Regarding “Gpc4Δ529SAG531::HHHHHH (ΔGpc4), soluble mutant lacking the GPI anchor attachment site, with N-terminal 6xHis tag (from UniProt P51655 19-528; P51655 532-557)”, the insulin-stimulated Akt-Ser473 peak phosphorylation, enhancement by overexpression amounted to 94% and the insulin-stimulated ERK peak phosphorylation, enhancement by overexpression turned out to be 67%.

These data come from patent publication US20140364363A1.
